The results in this text go back to the supplement of paper PMC9428881.

The series in a line: background-corrected fluorescence of 3'-dye-labeled ssDNA relative to brightest sequence (3'-GCGCG) (fraction); higher = brighter dye fluorescence (less quenching). In outline:
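By light-directed phosphoramidite synthesis, single-stranded DNA ending in a 3' Cy3 or Cy5 dye beside each of 1024 permuted pentamers was built on glass slides. Scanning at 532 or 635 nm took place before and after overnight ethylenediamine/ethanol deprotection. Data are means of 10 features per array over at least 3 syntheses. Fluorescence is corrected for unlabeled-oligo background and scaled to the brightest sequence.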

± gives the standard error.

With “TTTTTTGATCATCATGATCATTTTTTTTTTTTTTTCGGCG [GCGGC]”, the background-corrected fluorescence (dye: Cy3 (3' terminal)) is 0.704 ± 0.027 and the background-corrected fluorescence (dye: Cy5 (3' terminal)) came to 0.611 ± 0.053.

With “TTTTTTGATCATCATGATGATTTTTTTTTTTTTTTCGGCC [CCGGC]”, the background-corrected fluorescence (dye: Cy3 (3' terminal)) turned out to be 0.465 ± 0.022 and the background-corrected fluorescence (dye: Cy5 (3' terminal)) worked out at 0.364 ± 0.027.

For the sequence “TTTTTTGATCATCATGATGCTTTTTTTTTTTTTTTCGGCA [ACGGC]”, the background-corrected fluorescence reads like this: (dye: Cy3 (3' terminal)) 0.612 ± 0.015; (dye: Cy5 (3' terminal)) 0.493 ± 0.034.

As for “TTTTTTGATCATCATGCGCATTTTTTTTTTTTTTTCGGAT [TAGGC]”, the background-corrected fluorescence by setting is: (dye: Cy3 (3' terminal)) 0.593 ± 0.017; (dye: Cy5 (3' terminal)) 0.472 ± 0.033.

Take “TTTTTTGATCATCATGCTCATTTTTTTTTTTTTTTCGGAG [GAGGC]”: the background-corrected fluorescence (dye: Cy3 (3' terminal)) amounted to 0.603 ± 0.02 and the background-corrected fluorescence (dye: Cy5 (3' terminal)) worked out at 0.487 ± 0.024.

Consider “TTTTTTGATCATCATGCTGATTTTTTTTTTTTTTTCGGAC [CAGGC]”, for which the background-corrected fluorescence (dye: Cy3 (3' terminal)) came out at 0.531 ± 0.011 and the background-corrected fluorescence (dye: Cy5 (3' terminal)) is 0.389 ± 0.034.

As to “TTTTTTGATCATCATGCTGCTTTTTTTTTTTTTTTCGGAA [AAGGC]”, the background-corrected fluorescence runs as follows: (dye: Cy3 (3' terminal)) 0.656 ± 0.032; (dye: Cy5 (3' terminal)) 0.548 ± 0.058.

Take “TTTTTTGATCATGAGCAGCATTTTTTTTTTTTTTTCGCTT”: the background-corrected fluorescence (dye: Cy3 (3' terminal)) came to 0.51 ± 0.017 and the background-corrected fluorescence (dye: Cy5 (3' terminal)) was found to be 0.409 ± 0.047.

As for “TTTTTTGATCATGAGCATCATTTTTTTTTTTTTTTCGCTG [GTCGC]”, the background-corrected fluorescence came out at 0.534 ± 0.014 (dye: Cy3 (3' terminal)) and 0.423 ± 0.043 (dye: Cy5 (3' terminal)).

Regarding “TTTTTTGATCATGAGCATGATTTTTTTTTTTTTTTCGCTC [CTCGC]”, the background-corrected fluorescence runs as follows: (dye: Cy3 (3' terminal)) 0.452 ± 0.039; (dye: Cy5 (3' terminal)) 0.318 ± 0.024.

With “TTTTTTGATCATGAGCATGCTTTTTTTTTTTTTTTCGCTA [ATCGC]”, the background-corrected fluorescence by setting is: (dye: Cy3 (3' terminal)) 0.549 ± 0.026; (dye: Cy5 (3' terminal)) 0.399 ± 0.027.

For “TTTTTTGATCATGATCAGCATTTTTTTTTTTTTTTCGCGT [TGCGC]”, the background-corrected fluorescence reads like this: (dye: Cy3 (3' terminal)) 0.783 ± 0.029; (dye: Cy5 (3' terminal)) 0.697 ± 0.048.

In the case of “TTTTTTGATCATGATCATCATTTTTTTTTTTTTTTCGCGG [GGCGC]”, the background-corrected fluorescence stood at 0.814 ± 0.019 (dye: Cy3 (3' terminal)) and 0.793 ± 0.047 (dye: Cy5 (3' terminal)).

Take “TTTTTTGATCATGATCATGATTTTTTTTTTTTTTTCGCGC”: the background-corrected fluorescence reads like this: (dye: Cy3 (3' terminal)) 0.759 ± 0.032; (dye: Cy5 (3' terminal)) 0.66 ± 0.052.

As for “TTTTTTGATCATGATCATGCTTTTTTTTTTTTTTTCGCGA [AGCGC]”, the background-corrected fluorescence is, setting by setting: (dye: Cy3 (3' terminal)) 0.823 ± 0.027; (dye: Cy5 (3' terminal)) 0.792 ± 0.034.

In the case of “TTTTTTGATCATGATGAGCATTTTTTTTTTTTTTTCGCCT [TCCGC]”, the background-corrected fluorescence runs as follows: (dye: Cy3 (3' terminal)) 0.488 ± 0.028; (dye: Cy5 (3' terminal)) 0.369 ± 0.03.

Turning to “TTTTTTGATCATGATGATCATTTTTTTTTTTTTTTCGCCG [GCCGC]”, the background-corrected fluorescence is, setting by setting: (dye: Cy3 (3' terminal)) 0.647 ± 0.017; (dye: Cy5 (3' terminal)) 0.506 ± 0.046.

Regarding “TTTTTTGATCATGATGATGATTTTTTTTTTTTTTTCGCCC [CCCGC]”, the background-corrected fluorescence is, setting by setting: (dye: Cy3 (3' terminal)) 0.406 ± 0.032; (dye: Cy5 (3' terminal)) 0.308 ± 0.055.

Take “TTTTTTGATCATGATGATGCTTTTTTTTTTTTTTTCGCCA [ACCGC]”: the background-corrected fluorescence reads like this: (dye: Cy3 (3' terminal)) 0.49 ± 0.03; (dye: Cy5 (3' terminal)) 0.423 ± 0.051.

Turning to “TTTTTTGATCATGATGCGCATTTTTTTTTTTTTTTCGCAT [TACGC]”, the background-corrected fluorescence is 0.517 ± 0.0084 (dye: Cy3 (3' terminal)) and 0.395 ± 0.021 (dye: Cy5 (3' terminal)).

Sequence “TTTTTTGATCATGATGCTCATTTTTTTTTTTTTTTCGCAG [GACGC]” displayed a background-corrected fluorescence (dye: Cy3 (3' terminal)) of 0.595 ± 0.025 and a background-corrected fluorescence (dye: Cy5 (3' terminal)) of 0.446 ± 0.029.

“TTTTTTGATCATGATGCTGATTTTTTTTTTTTTTTCGCAC [CACGC]”: the background-corrected fluorescence came out at 0.435 ± 0.025 (dye: Cy3 (3' terminal)) and 0.342 ± 0.06 (dye: Cy5 (3' terminal)).

Consider “TTTTTTGATCATGATGCTGCTTTTTTTTTTTTTTTCGCAA [AACGC]”, for which the background-corrected fluorescence (dye: Cy3 (3' terminal)) was 0.552 ± 0.031 and the background-corrected fluorescence (dye: Cy5 (3' terminal)) was 0.443 ± 0.035.

On to “TTTTTTGATCATGCGCAGCATTTTTTTTTTTTTTTCGATT [TTAGC]”, for which the background-corrected fluorescence was determined as 0.602 ± 0.031 (dye: Cy3 (3' terminal)) and 0.404 ± 0.025 (dye: Cy5 (3' terminal)).

Take “TTTTTTGATCATGCGCATCATTTTTTTTTTTTTTTCGATG [GTAGC]”: the background-corrected fluorescence by setting is: (dye: Cy3 (3' terminal)) 0.552 ± 0.021; (dye: Cy5 (3' terminal)) 0.438 ± 0.024.

“TTTTTTGATCATGCGCATGATTTTTTTTTTTTTTTCGATC [CTAGC]” displayed a background-corrected fluorescence (dye: Cy3 (3' terminal)) of 0.457 ± 0.018 and a background-corrected fluorescence (dye: Cy5 (3' terminal)) of 0.354 ± 0.027.

In the case of “TTTTTTGATCATGCGCATGCTTTTTTTTTTTTTTTCGATA [ATAGC]”, the background-corrected fluorescence came out at 0.595 ± 0.036 (dye: Cy3 (3' terminal)) and 0.427 ± 0.025 (dye: Cy5 (3' terminal)).

For the sequence “TTTTTTGATCATGCTCAGCATTTTTTTTTTTTTTTCGAGT [TGAGC]”, the background-corrected fluorescence came out at 0.684 ± 0.026 (dye: Cy3 (3' terminal)) and 0.477 ± 0.058 (dye: Cy5 (3' terminal)).

For the sequence “TTTTTTGATCATGCTCATCATTTTTTTTTTTTTTTCGAGG [GGAGC]”, the background-corrected fluorescence (dye: Cy3 (3' terminal)) amounted to 0.723 ± 0.029 and the background-corrected fluorescence (dye: Cy5 (3' terminal)) is 0.534 ± 0.035.

“TTTTTTGATCATGCTCATGATTTTTTTTTTTTTTTCGAGC”: the background-corrected fluorescence runs as follows: (dye: Cy3 (3' terminal)) 0.547 ± 0.018; (dye: Cy5 (3' terminal)) 0.425 ± 0.035.

For the sequence “TTTTTTGATCATGCTCATGCTTTTTTTTTTTTTTTCGAGA [AGAGC]”, the background-corrected fluorescence (dye: Cy3 (3' terminal)) is 0.695 ± 0.032 and the background-corrected fluorescence (dye: Cy5 (3' terminal)) was 0.53 ± 0.037.

Regarding “TTTTTTGATCATGCTGAGCATTTTTTTTTTTTTTTCGACT [TCAGC]”, the background-corrected fluorescence is 0.488 ± 0.019 (dye: Cy3 (3' terminal)) and 0.363 ± 0.028 (dye: Cy5 (3' terminal)).

On to “TTTTTTGATCATGCTGATCATTTTTTTTTTTTTTTCGACG [GCAGC]”, for which the background-corrected fluorescence reads like this: (dye: Cy3 (3' terminal)) 0.602 ± 0.013; (dye: Cy5 (3' terminal)) 0.491 ± 0.024.

With “TTTTTTGATCATGCTGATGATTTTTTTTTTTTTTTCGACC [CCAGC]”, the background-corrected fluorescence reads like this: (dye: Cy3 (3' terminal)) 0.4 ± 0.016; (dye: Cy5 (3' terminal)) 0.324 ± 0.03.

For the sequence “TTTTTTGATCATGCTGATGCTTTTTTTTTTTTTTTCGACA [ACAGC]”, the background-corrected fluorescence turned out to be 0.512 ± 0.028 (dye: Cy3 (3' terminal)) and 0.429 ± 0.053 (dye: Cy5 (3' terminal)).

Turning to “TTTTTTGATCATGCTGCGCATTTTTTTTTTTTTTTCGAAT [TAAGC]”, the background-corrected fluorescence was found to be 0.599 ± 0.04 (dye: Cy3 (3' terminal)) and 0.402 ± 0.026 (dye: Cy5 (3' terminal)).

For “TTTTTTGATCATGCTGCTCATTTTTTTTTTTTTTTCGAAG [GAAGC]”, the background-corrected fluorescence reads like this: (dye: Cy3 (3' terminal)) 0.609 ± 0.013; (dye: Cy5 (3' terminal)) 0.463 ± 0.021.

In the case of “TTTTTTGATCATGCTGCTGATTTTTTTTTTTTTTTCGAAC [CAAGC]”, the background-corrected fluorescence turned out to be 0.48 ± 0.039 (dye: Cy3 (3' terminal)) and 0.366 ± 0.022 (dye: Cy5 (3' terminal)).

Turning to “TTTTTTGATCATGCTGCTGCTTTTTTTTTTTTTTTCGAAA [AAAGC]”, the background-corrected fluorescence is, setting by setting: (dye: Cy3 (3' terminal)) 0.576 ± 0.032; (dye: Cy5 (3' terminal)) 0.475 ± 0.057.

Consider “TTTTTTGATGAGCAGCAGCATTTTTTTTTTTTTTTCCTTT”, for which the background-corrected fluorescence was 0.492 ± 0.016 (dye: Cy3 (3' terminal)) and 0.347 ± 0.023 (dye: Cy5 (3' terminal)).

Take “TTTTTTGATGAGCAGCATCATTTTTTTTTTTTTTTCCTTG [GTTCC]”: the background-corrected fluorescence (dye: Cy3 (3' terminal)) came to 0.547 ± 0.021 and the background-corrected fluorescence (dye: Cy5 (3' terminal)) worked out at 0.378 ± 0.025.

Take “TTTTTTGATGAGCAGCATGATTTTTTTTTTTTTTTCCTTC [CTTCC]”: the background-corrected fluorescence (dye: Cy3 (3' terminal)) is 0.362 ± 0.03 and the background-corrected fluorescence (dye: Cy5 (3' terminal)) stood at 0.288 ± 0.03.

For “TTTTTTGATGAGCAGCATGCTTTTTTTTTTTTTTTCCTTA [ATTCC]”, the background-corrected fluorescence is 0.513 ± 0.023 (dye: Cy3 (3' terminal)) and 0.369 ± 0.029 (dye: Cy5 (3' terminal)).
